Non-standard residues stand in square brackets, D forms with d. pGlu = O=C1CC[C@@H](C(=O)O)N1

This note sets out measurements from patent US20090136527A1.

Assay [1] deals with T1, human GnRH receptor (human) (UniProt P30968).
T1 sequence (looked up): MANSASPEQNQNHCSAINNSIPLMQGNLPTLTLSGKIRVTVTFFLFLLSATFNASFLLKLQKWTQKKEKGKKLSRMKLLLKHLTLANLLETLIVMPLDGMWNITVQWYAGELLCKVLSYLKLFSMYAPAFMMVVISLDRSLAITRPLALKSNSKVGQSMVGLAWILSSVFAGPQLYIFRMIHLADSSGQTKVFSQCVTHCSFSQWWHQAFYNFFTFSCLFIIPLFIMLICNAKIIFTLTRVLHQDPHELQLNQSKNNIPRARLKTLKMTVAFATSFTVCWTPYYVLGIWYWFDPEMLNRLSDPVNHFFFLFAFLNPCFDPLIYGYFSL
Put plainly: cell-based or functional assay.

Assay [2] deals with affinity purified rabbit anti-RI-GnRH antibody fraction eluted with potassium thiocyanate, first fraction (KSCN 1). Put plainly: inhibition ELISA: antibody fraction preincubated with free peptide, binding to coated RI-GnRH.

The molecule EHWSYGLQPG (pGlu (pyroglutamate) at position 1; C-terminal amide) [chicken GnRH I ([Gln8]GnRH)] came in with a half-maximal effective concentration (EC50) of IP production in assay [1] of 1 nM. Further, the IC50 (read off the curve) in assay [2] stood at 100 nM.

B1: GnRH II ([His5, Trp7, Tyr8]GnRH) (peptide)
peptide: [pGlu]HWSHGWYPG-NH2
SMILES: NC(=O)CNC(=O)[C@@H]1CCCN1C(=O)[C@H](Cc1ccc(O)cc1)NC(=O)[C@H](Cc1c[nH]c2ccccc12)NC(=O)CNC(=O)[C@H](Cc1c[nH]cn1)NC(=O)[C@H](CO)NC(=O)[C@H](Cc1c[nH]c2ccccc12)NC(=O)[C@H](Cc1c[nH]cn1)NC(=O)[C@@H]1CCC(=O)N1
B1 yielded a half-maximal effective concentration (EC50) of IP production in assay [1] of 1 nM.
